Data published in paper PMC8213676, “OsJAZ11 regulates phosphate starvation responses in rice”.

Target: OsPHR2-6XHIS (Oryza sativa, UniProt Q6Z156 1-426)
Experiment: EMSA; 0.7 ug protein, 50 ng probe; 15 mM HEPES pH 8.0, 30 mM KCl, 1 mM MgCl2, 0.2 mM EDTA, 0.02 mM DTT, 0.6% glycerol, 1 ug poly(dI-dC) in 20 ul, 20 °C 30 min (1 h with 15 mM NaH2PO4 for inhibition assay); gel 0.5X TBE at 4 °C
Conditions: protein: recombinant; tags: 6xHis (pET28a); chain copies: 2; label: DIG 3' end; blunt

Chain of OsPHR2-6XHIS (Q6Z156 whole entry): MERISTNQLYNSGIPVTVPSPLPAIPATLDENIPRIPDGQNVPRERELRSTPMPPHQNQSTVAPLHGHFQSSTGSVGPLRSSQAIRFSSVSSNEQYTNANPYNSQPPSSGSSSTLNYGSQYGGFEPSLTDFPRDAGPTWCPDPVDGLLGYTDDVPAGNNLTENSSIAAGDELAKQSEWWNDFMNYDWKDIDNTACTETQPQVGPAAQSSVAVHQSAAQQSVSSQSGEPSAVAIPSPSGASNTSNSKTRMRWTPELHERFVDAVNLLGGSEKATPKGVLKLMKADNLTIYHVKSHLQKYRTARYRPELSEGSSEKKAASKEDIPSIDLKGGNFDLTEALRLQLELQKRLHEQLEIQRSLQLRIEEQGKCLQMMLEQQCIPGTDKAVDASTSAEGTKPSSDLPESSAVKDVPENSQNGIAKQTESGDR

B1: OsSPX2 promoter P1BS probe (dsDNA)
DNA 1: TATCCCCGTCACGAATATTCCTCTTCCTCC
DNA 2: GGAGGAAGAGGAATATTCGTGACGGGGATA
  binding result: binds
